The record followed here is PMC5066616, “Rapid dynamics of general transcription factor TFIIB binding during preinitiation complex assembly revealed by single-molecule analysis”.

Data set [1] has as its target TFIID–TFIIA complex on promoter DNA (TFIID–TFIIA–promoter complex) (human) (UniProt P20226). Nature of the data set: single-molecule fluorescence colocalisation (TIRF); supercore promoter DNA and a mutant control template (-63 to +90) immobilised via biotin–streptavidin; dye-labelled factors injected with unlabelled ones; a signal within ∼40 nm of a DNA position counted as binding; 2.5 Hz; 11.3 mM HEPES pH 7.9, 5.6 mM MgCl2, 45 mM KCl; the target protein is DNA-bound.

The target of data set [2] is T1, TBP;TFIIA;TFIIB full length (human;human;human, UniProt P20226;P52655;P52657;Q00403 1-339;1-376;1-109;1-316, ||). In words: EMSA; 10 nM DNA; similar efficiency to supercore; Single-molecule: 11.3 mM HEPES pH 7.9, 5.6 mM MgCl2, 45 mM KCl, 45 uM EDTA, 4.5% glycerol, 3.6 ng/ul tRNA, 0.1 ng/ul poly(dG:dC), 0.09% Tween 20, 0.0045% NP40. The following applies: protein: recombinant;recombinant;recombinant; tags: N-terminal 6xHis-HaloTag; TMR; GST removed by Ulp1;N-terminal tag incl. thrombin site, Ni-NTA purified; Alexa647 or TMR; copies: 1;1;1;1; label: 5' Cy3 or Atto633; 5' biotin; blunt.

Data set [3] concerns the target T1, TBP;TFIIA;TFIIB full length. Nature of the data set: EMSA; 10 nM DNA; Single-molecule: 11.3 mM HEPES pH 7.9, 5.6 mM MgCl2, 45 mM KCl, 45 uM EDTA, 4.5% glycerol, 3.6 ng/ul tRNA, 0.1 ng/ul poly(dG:dC), 0.09% Tween 20, 0.0045% NP40. The note with it: protein: recombinant;recombinant;recombinant; tags: N-terminal 6xHis-HaloTag; TMR; GST removed by Ulp1;N-terminal tag incl. thrombin site, Ni-NTA purified; Alexa647 or TMR; copies: 1;1;1;1; label: 5' Cy3 or Atto633; 5' biotin; blunt. A general note: Mobility shift assays separate free from complexed probe on a gel.

Sequence of TFIID–TFIIA complex on promoter DNA (TFIID–TFIIA–promoter complex) (human) (P20226 whole entry, looked up, one chain of several): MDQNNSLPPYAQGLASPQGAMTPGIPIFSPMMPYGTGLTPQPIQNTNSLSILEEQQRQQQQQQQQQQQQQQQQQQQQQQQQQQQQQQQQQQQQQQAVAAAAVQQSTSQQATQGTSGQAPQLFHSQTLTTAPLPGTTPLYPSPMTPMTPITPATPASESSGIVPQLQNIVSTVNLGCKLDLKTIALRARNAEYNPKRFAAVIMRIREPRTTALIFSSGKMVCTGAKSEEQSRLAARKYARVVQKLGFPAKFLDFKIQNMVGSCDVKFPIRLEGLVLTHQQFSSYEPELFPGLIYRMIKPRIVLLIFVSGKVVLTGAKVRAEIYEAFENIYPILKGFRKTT
T1 sequence (P20226 whole entry, chain 1 of 4): as the sequence (P20226 whole entry, looked up, one chain of several) above
T1 sequence (P52655 whole entry, chain 2 of 4): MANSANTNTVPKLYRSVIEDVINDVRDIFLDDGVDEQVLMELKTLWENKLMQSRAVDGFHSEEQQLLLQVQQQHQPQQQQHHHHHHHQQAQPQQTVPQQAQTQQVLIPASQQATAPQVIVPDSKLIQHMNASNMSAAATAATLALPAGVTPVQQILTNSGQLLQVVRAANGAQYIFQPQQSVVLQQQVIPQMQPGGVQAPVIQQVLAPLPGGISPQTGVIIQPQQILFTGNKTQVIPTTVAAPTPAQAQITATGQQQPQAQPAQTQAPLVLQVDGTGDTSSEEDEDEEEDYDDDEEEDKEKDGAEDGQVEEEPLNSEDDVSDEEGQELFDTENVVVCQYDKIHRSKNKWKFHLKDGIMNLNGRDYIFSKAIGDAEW
T1 sequence (P52657 whole entry, chain 3 of 4): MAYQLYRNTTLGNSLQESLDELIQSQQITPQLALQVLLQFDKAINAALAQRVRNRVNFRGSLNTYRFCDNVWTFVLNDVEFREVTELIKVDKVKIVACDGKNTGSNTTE
T1 sequence (Q00403 whole entry, chain 4 of 4): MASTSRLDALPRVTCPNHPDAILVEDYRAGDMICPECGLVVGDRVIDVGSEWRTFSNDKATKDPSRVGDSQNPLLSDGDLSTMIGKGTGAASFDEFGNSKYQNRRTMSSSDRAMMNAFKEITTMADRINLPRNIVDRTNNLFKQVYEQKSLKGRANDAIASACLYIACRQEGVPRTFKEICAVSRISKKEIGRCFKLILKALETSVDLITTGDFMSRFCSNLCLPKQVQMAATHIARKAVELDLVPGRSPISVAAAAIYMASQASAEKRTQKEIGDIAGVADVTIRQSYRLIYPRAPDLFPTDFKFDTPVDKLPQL

In data set [1], “TFIIB, full-length (FL) (from UniProt Q00403 1-316) (natural protein)” registered a DNA-binding efficiency (percent of supercore templates colocalising with TFIIB) of 30%, an average residence time of 1.5 s and an average waiting time after TFIIA arrival (∼8 nM TFIIB) of 3 s.

B1: Mutant control template, EMSA (dsDNA)
DNA 1: CATAACCATATGTATCATACACATACGGTACACGTATGTGGGGGTGGGGGCGCGTTCGTCCTGTGACACGATCGAACACTCGAGCCGAGCAGCATAGCCTACGGACCGCAAGCTTCCCTATCCCTTATCTTAACCACTCCAATTACATACACC
DNA 2: GGTGTATGTAATTGGAGTGGTTAAGATAAGGGATAGGGAAGCTTGCGGTCCGTAGGCTATGCTGCTCGGCTCGAGTGTTCGATCGTGTCACAGGACGAACGCGCCCCCACCCCCACATACGTGTACCGTATGTGTATGATACATATGGTTATG
On to B1, for which the binding result in data set [2] was “binds”.

B2: Supercore promoter template, EMSA (dsDNA)
DNA 1: CATAACCATATGTATCATACACATACGGTACTTATATAAGGGGGTGGGGGCGCGTTCGTCCTCAGTCGCGATCGAACACTCGAGCCGAGCAGACGTGCCTACGGACCGCAAGCTTCCCTATCCCTTATCTTAACCACTCCAATTACATACACC
DNA 2: GGTGTATGTAATTGGAGTGGTTAAGATAAGGGATAGGGAAGCTTGCGGTCCGTAGGCACGTCTGCTCGGCTCGAGTGTTCGATCGCGACTGAGGACGAACGCGCCCCCACCCCCTTATATAAGTACCGTATGTGTATGATACATATGGTTATG
Consider B2, for which the binding result in data set [3] is given as “binds”.
